Assay results: patent US20230348589A1

Assays:
[1] = molecular target: A138 iCAPS (purified human CB1 with ICL3 native sequence replaced with protein 1 sequence, in lipid bilayer) (human) (UniProt P21554); assay: ELISA, purified IgG on CB1 iCAPS
[2] = molecular target: A139 iCAPS (purified human CB1 with ICL3 native sequence replaced with BRIL, in lipid bilayer) (human) (UniProt P21554); assay: ELISA, purified IgG on CB1 iCAPS
Chain of A139 iCAPS (purified human CB1 with ICL3 native sequence replaced with BRIL, in lipid bilayer) (human) (P21554 whole entry): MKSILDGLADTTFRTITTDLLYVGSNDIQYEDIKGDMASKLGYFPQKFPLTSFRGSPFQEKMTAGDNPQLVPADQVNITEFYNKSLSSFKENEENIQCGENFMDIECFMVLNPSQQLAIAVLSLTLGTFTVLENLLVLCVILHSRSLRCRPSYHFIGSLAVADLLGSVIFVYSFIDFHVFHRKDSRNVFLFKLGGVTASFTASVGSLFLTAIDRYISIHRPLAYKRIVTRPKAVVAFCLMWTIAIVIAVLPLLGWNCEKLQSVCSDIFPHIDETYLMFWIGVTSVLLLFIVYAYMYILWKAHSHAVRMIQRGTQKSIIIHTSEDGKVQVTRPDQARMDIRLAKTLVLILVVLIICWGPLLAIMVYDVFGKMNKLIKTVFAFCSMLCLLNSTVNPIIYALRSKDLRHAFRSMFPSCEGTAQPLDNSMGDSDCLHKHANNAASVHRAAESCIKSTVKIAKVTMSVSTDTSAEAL

Chain of A138 iCAPS (purified human CB1 with ICL3 native sequence replaced with protein 1 sequence, in lipid bilayer) (human) (P21554 whole entry): as above

B1: PA2LR3-P1G6 (chimeric) (antibody, V domains shown)
VH: EVQLQQSGAELVRPGSSVKISCKASGYAFSYYWMNWVKQRPGQGLEWIGQIYPGDGDTNYNGKFKGKATLTVDKSSSTAYMQLSSLTSEDSAVYFCARSHGNYFAYWGQGTLVTVSA
VL: DIVLSQSPAIMSASLGERVTMTCTASSSVSSSYLHWYQQKPGSSPKLWIYSTSNLASGVPARFSGSGSGTSYSLTISRMEAEDAATYYCQQWSSYPLTFGAGTKLELKR
- EC50 [1]: 81 nM
- EC50 [2]: 35 nM

B2: PA2LR3-P2E5 (chimeric) (antibody, V domains shown)
VH: EVQLQQSGAELVRPGSSVKISCKASGYAFRDYWMNWVKQRPGQGLEWIGQIYPGDGATNYIGKFKGKATLTADKSSSTAYMQLSSLTSEDSAVYFCARSHGNYFPYWGHGTLVTVSA
VL: QIVLTQSPAIMSASLGERVTMTCTASSSVSSSYLHWYQQKPGSSPKLWIYSTSNLASGVPARFSGSGSGTSYSLTISSMEAEDAATYYCQQWSSYPLTFGAGTKLELKR
- EC50 [1]: 10 nM
- EC50 [2]: 3.2 nM

B3: PA2LR3-P3B10 (chimeric) (antibody, V domains shown)
VH: EVQLQQSGAELVRPGSSVKISCKASGYAFSYYWMNWVKQRPGQGLEWIGQIYPGDGDTNYNGKFKGKATLTADKSSSTAYMQLSSLTSEDSAVYFCARSHGNYFPYWGQGTLVTVSA
VL: DIVITQSPAIVSASLGERVTMTCTASSSVSSSYLHWYQQKPGSSPKLWIYSTSNLASGVPARFSGSGSGTSYSLTISSMEAEDAATYYCQQWSSYPLTFGAGTKLEIKR
- EC50 [1]: 1.4 nM
- EC50 [2]: 0.78 nM

B4: PA2LR3-P3B8 (chimeric) (antibody, V domains shown)
VH: EVQLQQSGAELVRPGSSVKISCKASGFAFSNYWMNWVKQRPGQGLEWIGQIYPGDGDTNFNGKFKGRAILTADISSNTAYMQLSSLTSEDSAVYFCARSHGNYFPYWGQGTLVTVSA
VL: DIVMTQSPAIMSASLGERVTMTCTASSSVSSSYLHWYQQKPGSSPKLWIYGTSNLASGVPVRFSGSGSGTSYSLTISSMEAEDAATYYCQQWSSYPLTFGAGTKLELKR
- EC50 [1]: 71 nM

B5: PA2LR3-P4B1 (chimeric) (antibody, human IgG1, kappa, V domains shown)
VH: EVQLQQSGAELVRPGSSVKISCKASGFAFSNYWMNWVKQRPGQGLEWIGQIYPGDGDTNFNGKFKGRAILTADISSNTAYMQLSSLTSEDSAVYFCARSHGNYFPYWGQGTLVTVSA
VL: QIVLTQSPAIMSASLGERVTMTCTASSSVSSSYLHWYQQKPGSSPKLWIYSTSNLASGVPARFSGSGSGTSYSLTISSMEAEDAATYYCHQYHRSPLTFGAGTKLELKR
- EC50 [1]: 1.28 nM
- EC50 [2]: 1.41 nM

B6: PA2LR3-P4C6 (chimeric) (antibody, V domains shown)
VH: EVQLQQSGAELVRPGSSVKISCKASGYAFSYYWMNWVKQRPGQGLEWIGQIYPGDGDTNYNGKFKGKATLTADKSSSTAYMQLSSLTSEDSAVYFCARSHGNYFPYWGQGTLVTVSA
VL: DIVITQSPAIVSASLGERVTMTCTASSSVSSSYLHWYQQKPGSSPKLWIYSTSNLASGVPARFSGSGSGTSYSLTISSMEAEDAATYYCQQWSSYPLTFGAGTKLEIKR
- EC50 [1]: 0.4 nM
- EC50 [2]: 0.4 nM

B7: PA2LR3-P4G10 (chimeric) (antibody, V domains shown)
VH: EVQLQQFGAELVRPGSSVKISCKASGYAFSYYWMNWVKQRPGQGLEWIGQIYPGDGDTNYNGKFKGKATLTADKSSSTAYMQLSSLTSEDSAVYFCARSHGNYFAYWGQGTLVTVSA
VL: DIVLTQSPAIMSASLGERVTMTCTASSSVSSSYLHWYQQKPGSSPKLWIYSTSNLASGVPARFSGSGSGTSYSLTISSMEAEDAATYYCQQWSSNPLTFGAGTKLELKR
- EC50 [1]: 1.19 nM
- EC50 [2]: 1.35 nM

B8: PA2R3-P1F1 (chimeric) (antibody, V domains shown)
VH: EVQLQQSGAELMKPGASVKISCKATGYTFSSYWIEWVKQRPGHGLEWIGEILPGSGSTNYNEKFKGKATFTADTSSNTAYMQLSSLTSEDSAVYYCARGAWLLSYWYFDVWGAGTSVTVSS
VL: DIQMMQSTSSLSASLGDRVTISCSASQGISNYLNWYQQKPDGTVKLLIYYTSSLHSGVPSRFSGSGSGTQFSLKINSLQPEDFGSYYCQHHYGTPYTFGGGTKLELKR
- EC50 [1]: 1.3 nM
- EC50 [2]: 1.1 nM

B9: PA2LR3-P1H4 (chimeric) (antibody, V domains shown)
VH: EVQLQQSGAELVRPGSSVKISCKASGYVFGNYWMNWVKQRPGQGLEWIGQIYPGDGDTNYNGKFKGKATLTADKSSSTAYMQLSSLTSEDSAVYFCARSHGNYFPYWGQGTLVTVSA
VL: QIVLTQSPAIMSASLGERVTMTCTASSSVSSSYLHWYQQKPGSSPKLWIYSTSNLASGVPARFSGSGSGTSYSLTISSMEAEDAATYYCQQWSSYPLTFGAGTKLELKR
- EC50 [1]: 21 nM
- EC50 [2]: 33.5 nM

B10: PA2LR3-P2B8 (chimeric) (antibody, V domains shown)
VH: EVQLQQSGAELVRPGSSVKISCKASGYAFSYYWMNWVKQRPGQGLEWIGQIYPGDGDTNYNGKFKGKATLTADKSSSTAYMQLSSLTSEDSAVYFCARSHGNYFAYWGQGTLVTVSA
VL: DIVMTQSPAIMSASLGERVTMTCTASSSISSSYLHWYQQKPGSSPKLWIYSTSNLASGVPARFSGSGSGTSYSLTISSMEAEDAATYYCHQYHRSPLAFGAGTKLELKR
- EC50 [1]: 6.7 nM
- EC50 [2]: 1.8 nM

B11: PA2LR3-P2D3 (chimeric) (antibody, human IgG1, kappa, V domains shown)
VH: EVQLQQSGAELVRPGSSVKISCKASGYAFSYYWMNWVKQRPGQGLEWIGQIYPGDGDTNYNGKFKGKATLTADKSSSTAYMQLSSLTSEDSAVYFCARSHGSYFAYWGQGTLVTVSA
VL: DIELAQSPASLAVSLGQRATISCRASESVDSYGNSFMHWYQQKPGQPPKLLIYLASNLESGVPARFSGSGSRADFTLTIDPVEADDAATYYCLQYASSPPTFGAGTKLEIKR
- EC50 [1]: 4.9 nM
- EC50 [2]: 2.6 nM
